Measurements taken from article PMC5794963, “Link between the causative genes of holoprosencephaly: Zic2 directly regulates Tgif1 expression”.

Assays:
F-HA-Zic2 [1] = molecular target: T1, F-HA-Zic2 (UniProt Q62520 1-530); assay: competition; against N9; inhibits complex formation; Footprinting: 20 mM Tris-HCl pH 8.0, 3 mM MgCl2, 5 mM CaCl2, 100 mM NaCl, 100 mM DTT, 0.1 mM EDTA, 50 ug/ml BSA, 25 C, 30 min; EMSA conditions as in earlier work; details: protein: recombinant; tags: N-terminal FLAG-HA; label: none
T1 sequence (Q62520 whole entry): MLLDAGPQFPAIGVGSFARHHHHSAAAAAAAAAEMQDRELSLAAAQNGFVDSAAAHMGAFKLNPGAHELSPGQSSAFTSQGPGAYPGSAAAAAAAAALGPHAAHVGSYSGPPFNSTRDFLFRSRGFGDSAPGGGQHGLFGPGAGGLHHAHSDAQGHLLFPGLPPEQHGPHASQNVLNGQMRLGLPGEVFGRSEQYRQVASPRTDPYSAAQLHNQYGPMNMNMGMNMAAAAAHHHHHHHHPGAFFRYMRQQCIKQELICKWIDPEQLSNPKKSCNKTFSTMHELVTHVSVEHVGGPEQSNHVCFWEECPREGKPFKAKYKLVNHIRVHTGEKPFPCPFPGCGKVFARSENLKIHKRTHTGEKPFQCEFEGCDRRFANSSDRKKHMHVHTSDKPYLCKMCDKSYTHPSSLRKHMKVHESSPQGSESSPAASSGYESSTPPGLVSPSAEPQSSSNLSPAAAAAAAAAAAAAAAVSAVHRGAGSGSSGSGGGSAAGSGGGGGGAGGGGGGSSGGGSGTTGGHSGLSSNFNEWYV

F-HA-Zic2 [2] = molecular target: T1, F-HA-Zic2; assay: competition; against N8; inhibits complex formation; Footprinting: 20 mM Tris-HCl pH 8.0, 3 mM MgCl2, 5 mM CaCl2, 100 mM NaCl, 100 mM DTT, 0.1 mM EDTA, 50 ug/ml BSA, 25 C, 30 min; EMSA conditions as in earlier work; details: protein: recombinant; tags: N-terminal FLAG-HA; label: none
F-HA-Zic2 [3] = molecular target: T1, F-HA-Zic2; assay: competition; against N1; shifted bands disappear completely; Footprinting: 20 mM Tris-HCl pH 8.0, 3 mM MgCl2, 5 mM CaCl2, 100 mM NaCl, 100 mM DTT, 0.1 mM EDTA, 50 ug/ml BSA, 25 C, 30 min; EMSA conditions as in earlier work; details: protein: recombinant; tags: N-terminal FLAG-HA; label: none
GLI3-ZF-CH6 (GLI3 ZFD) = GLI3-ZF-CH6 (GLI3 ZFD) (UniProt P10071 480-632); assay: EMSA; preferred over ZBS core; Footprinting: 20 mM Tris-HCl pH 8.0, 3 mM MgCl2, 5 mM CaCl2, 100 mM NaCl, 100 mM DTT, 0.1 mM EDTA, 50 ug/ml BSA, 25 C, 30 min; EMSA conditions as in earlier work; details: protein: recombinant; blunt
Chain of GLI3-ZF-CH6 (GLI3 ZFD) (P10071 480-632): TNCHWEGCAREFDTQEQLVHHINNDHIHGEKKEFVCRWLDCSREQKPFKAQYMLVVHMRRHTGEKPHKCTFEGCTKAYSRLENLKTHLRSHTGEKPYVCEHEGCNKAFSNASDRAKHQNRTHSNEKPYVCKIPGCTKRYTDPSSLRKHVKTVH

F-HA-Zic2 [4] = molecular target: T1, F-HA-Zic2; assay: EMSA; even at 3-fold excess over ZBS core; Footprinting: 20 mM Tris-HCl pH 8.0, 3 mM MgCl2, 5 mM CaCl2, 100 mM NaCl, 100 mM DTT, 0.1 mM EDTA, 50 ug/ml BSA, 25 C, 30 min; EMSA conditions as in earlier work; details: protein: recombinant; tags: N-terminal FLAG-HA; blunt

B1: cp11 (-1830 to -1811) (dsDNA)
DNA 1: CCCGAGTCCCCGGCGGATGT
DNA 2: ACATCCGCCGGGGACTCGGG
B1: binds (F-HA-Zic2 [1]).

B2: cp8 (-1688 to -1669) (dsDNA)
DNA 1: GTCATCCCCTGCCGGGTCCC
DNA 2: GGGACCCGGCAGGGGATGAC
B2: binds (F-HA-Zic2 [2]).

B3: cp4 (-1728 to -1709) (dsDNA)
DNA 1: CCCGCACCACATGAGTCCCG
DNA 2: CGGGACTCATGTGGTGCGGG
B3: binds (F-HA-Zic2 [3]).

B4: GBS probe (dsDNA)
DNA 1: CGTCTTGGGTGGTCTCCCTC
DNA 2: GAGGGAGACCACCCAAGACG
B4: binds (GLI3-ZF-CH6 (GLI3 ZFD)); no binding (F-HA-Zic2 [4]).
